Measured values as given in US20050137135A1 (priority 2002, published 2005).
Square brackets hold non-standard residues; d marks the D form. Ends that are not written are not given here. Peptide text beside a SMILES is read from it. Ahx = NCCCCCC(=O)O

How the values were obtained:
[1] = biological target: T1, purified kidney DPIV (Sus scrofa, UniProt P22411); assay: Determination of DPIV resistance by MALDI-TOF mass spectrometry; assay type: in vitro ADME; settings: for half-life: read-out: half life after incubation with DP IV
T1 construct: The hydrolysis of peptide analogues by purified kidney DPIV was studied as described previously [12]; from tissue; host or cells: kidney
T1 sequence (P22411 whole entry): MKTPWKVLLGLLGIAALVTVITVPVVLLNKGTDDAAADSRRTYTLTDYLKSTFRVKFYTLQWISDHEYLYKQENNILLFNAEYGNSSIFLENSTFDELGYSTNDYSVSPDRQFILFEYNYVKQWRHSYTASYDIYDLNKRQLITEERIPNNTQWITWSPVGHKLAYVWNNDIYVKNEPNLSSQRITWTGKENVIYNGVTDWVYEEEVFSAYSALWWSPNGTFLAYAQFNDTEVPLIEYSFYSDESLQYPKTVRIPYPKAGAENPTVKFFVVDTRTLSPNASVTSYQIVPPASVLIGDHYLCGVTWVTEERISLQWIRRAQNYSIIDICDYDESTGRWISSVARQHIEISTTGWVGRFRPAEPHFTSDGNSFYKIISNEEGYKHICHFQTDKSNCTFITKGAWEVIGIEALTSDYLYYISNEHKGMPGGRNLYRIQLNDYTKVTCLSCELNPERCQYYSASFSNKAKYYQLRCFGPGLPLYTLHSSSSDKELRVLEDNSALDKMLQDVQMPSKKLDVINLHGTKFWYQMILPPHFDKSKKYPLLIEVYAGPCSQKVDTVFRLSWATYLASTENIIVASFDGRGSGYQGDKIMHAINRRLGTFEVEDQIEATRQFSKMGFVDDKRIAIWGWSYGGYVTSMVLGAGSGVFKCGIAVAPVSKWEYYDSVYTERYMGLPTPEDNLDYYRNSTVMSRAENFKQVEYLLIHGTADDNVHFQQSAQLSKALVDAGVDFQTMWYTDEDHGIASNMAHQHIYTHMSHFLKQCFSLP
Experimental: (§1) The hydrolysis of peptide analogues by purified kidney DPIV was studied as described previously. […] Samples were removed from the incubation mixture and prepared for MALDI-TOF mass spectrometry, as described in Pauly, […]., Pederson, R. A., and Demuth, H. U.

[2] = biological target: T2, DPIV (dipeptidyl peptidase IV) (Sus scrofa, UniProt P22411); assay: as above; assay type: in vitro ADME; settings: purified kidney DPIV, 0.04 M Tris buffer pH 7.6, up to 24 h, MALDI-TOF MS; read-out: half life after incubation with DP IV
T2 construct: The hydrolysis of peptide analogues by purified kidney DPIV was studied as described previously [12]; from tissue; host or cells: kidney
T2 sequence (P22411 whole entry): as above
Experimental: as §1

[3] = biological target: T3, rat pancreatic islet (wild type) GIP-receptor stably expressed on CHO-K1 cells (rat, UniProt P43219 19-455); assay: cell-based or functional assay
T3 sequence (looked up): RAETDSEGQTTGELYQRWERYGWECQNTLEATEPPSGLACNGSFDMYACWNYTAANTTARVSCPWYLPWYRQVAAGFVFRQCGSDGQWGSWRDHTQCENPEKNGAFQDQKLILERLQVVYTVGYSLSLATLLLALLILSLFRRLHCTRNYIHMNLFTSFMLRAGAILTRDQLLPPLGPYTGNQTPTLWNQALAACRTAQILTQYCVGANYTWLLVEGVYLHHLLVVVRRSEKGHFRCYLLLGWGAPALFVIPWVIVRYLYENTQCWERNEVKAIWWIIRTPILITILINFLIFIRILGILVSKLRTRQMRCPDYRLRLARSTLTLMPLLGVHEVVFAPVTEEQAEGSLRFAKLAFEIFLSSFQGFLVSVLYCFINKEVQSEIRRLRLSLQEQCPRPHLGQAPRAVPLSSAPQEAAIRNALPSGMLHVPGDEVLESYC

[4] = biological target: T3, rat pancreatic islet (wild type) …; assay: competition with 125I-GIP on CHO-K1 cells transfected with rat GIP receptor
Experimental: (§2) Cells were cultured in DMEM/F12, supplemented with 10% newborn calf serum, 50 units/ml penicillin G, and 50 μg/ml streptomycin (Culture media and antibiotics from Gibco BRL, Life Technologies). Cells were grown in 75 cm² flasks until 80-90% confluent, when they were split and seeded onto 24 well plates at a density of 50,000 cells/well. Experiments were carried out 48 h later.
(§3) Binding studies using ¹²⁵I-labeled spGIP₁₋₄₂, purified by high performance liquid chromatography (HPLC), were performed essentially as described previously-[21]. wtGIP-R1 Cells (1-5×10⁵/well) were washed twice at 4° C. in binding buffer (BB), consisting of DMEM/F12 (GIBCO), 15 mM HEPES, 0.1% bovine serum albumin (BSA), 1% Trasylol (aprotinin; Bayer), pH 7.4. They were incubated for 12-16 h at 4° C. with ¹²⁵I-spGIP (50,000 cpm) in the presence or absence of unlabeled GIP₁₋₄₂ or analogue. Following incubation, cells were washed twice with ice cold buffer, solubilized with 0.1 M NaOH (1 ml), and transferred to culture tubes for counting of cell-associated radioactivity. Nonspecific binding was defined as that measured in the presence of 1 μM GIP₁₋₄₂ or GIP₁₋₃₀, and specific binding expressed as % of binding in the absence of competitor (% B/Bo).

[5] = biological target: T3, rat pancreatic islet (wild type) …; assay: displacement of 125I-GIP from CHO-K1 cells transfected with rat GIP receptor, 20 µM peptide
Experimental: as §2, §3

[6] = purified kidney DPIV, 0.04 M Tris buffer pH 7.6, up to 24 h, MALDI-TOF MS

## D-Ala^2-GIP1-30a: GIP1-30 analog, N-terminal sequence Tyr-D-Ala-Glu-Gly (Y[dA]EGTFISDYSIAMDKIRQQDFVNWLLAQK-NH2)
[1]; pH 7.6
  half life after incubation with DP IV: stable

## CC[C@H](C)[C@H](NC(=O)[C@H](CO)NC(=O)[C@H](Cc1ccc(O)cc1)NC(=O)[C@H](CC(=O)O)NC(=O)[C@H](CO)NC(=O)[C@@H](NC(=O)[C@H](Cc1ccccc1)NC(=O)[C@@H](NC(=O)CNC(=O)[C@H](CCC(=O)O)NC(=O)[C@H](C)NC(=O)[C@@H](N)Cc1ccc(O)cc1)[C@@H](C)O)[C@@H](C)CC)C(=O)N[C@@H](C)C(=O)O [GIP1-13]
[1]; [6]
  half-life: 0.192 ± 0.0417 h

## Tyr-Ala-ψ(CH2NH)-Glu-Gly-Thr-Phe-Ile-Ser-Asp-Tyr-Ser-Ile-Ala-Met-Asp-Lys-Ile-His-Gln-Gln-Asp-Phe-Val-Asn-Trp-Leu-Leu-Ala-Gln-Lys [YAψ(CH2NH)-GIP3-30a]
[1]; pH 7.6
  half life after incubation with DP IV: stable

## CC[C@H](C)[C@H](NC(=O)[C@H](CO)NC(=O)[C@H](Cc1ccc(O)cc1)NC(=O)[C@H](CC(=O)O)NC(=O)[C@H](CO)NC(=O)[C@@H](NC(=O)[C@H](Cc1ccccc1)NC(=O)[C@@H](NC(=O)CNC(=O)[C@H](CCC(=O)O)NC(=O)[C@H](C)NC(=O)[C@@H](N)Cc1ccc(O)cc1)[C@@H](C)O)[C@@H](C)CC)C(=O)N[C@@H](C)C(=O)N[C@@H](CCSC)C(=O)N[C@@H](CC(=O)O)C(=O)O [GIP1-15]
[1]; [6]
  half-life: 0.583 ± 0.0867 h

## YVEGTFISDYSIAMDKIRQQDFVNWLLAQK-NH2 [Val^2-GIP1-30a]
[2]
  half-life: 4.97 ± 1.54 h

## YAPGTF-NH2 [Pro3-GIP1-6a]
[1]; [6]
  half life after incubation with DP IV: stable

## YSEGTF-NH2 [Ser^2-GIP1-6a]
[1]; [6]
  half-life: 1.32 ± 0.203 h

## Tyr-Ala-Ψ(CH2NH2)-Glu-Gly-Thr-Phe-Ile-Ser-Asp-Tyr-Ser-Ile-Ala-Met (EGTFISDYSIAM; not fully specified; N-terminal Tyr-Ala reduced bond, C-amide; printed: Glu-Gly-Thr-Phe-Ile-Ser-Asp-Tyr-Ser-Ile-Ala-Met) [YAψ(CH2NH)-GIP3-14a, GIP1-14 analogue with a reduced peptide bond]
[1]; pH 7.6
  half life after incubation with DP IV: stable

## YSEGTFISDYSIAMDKIRQQDFVNWLLAQK-NH2 [Ser^2-GIP1-30a]
[2]
  half-life: 2.28 ± 0.205 h

## C[C@@H](NC(=O)[C@@H](N)Cc1ccc(O)cc1)C(=O)N[C@@H](CCC(=O)O)C(=O)NCC(=O)N[C@H](C(=O)N[C@@H](Cc1ccccc1)C(N)=O)[C@@H](C)O [D-Ala^2-GIP1-6a] (H-Y[dA]EGTF-NH2)
[1]; [6]
  half life after incubation with DP IV: stable

## YAPGTFISDYSIAM [Pro^3-GIP1-14]
[1]; [6]
  half life after incubation with DP IV: stable

## CC[C@H](C)[C@H](NC(=O)[C@H](CO)NC(=O)[C@H](Cc1ccc(O)cc1)NC(=O)[C@H](CC(=O)O)NC(=O)[C@H](CO)NC(=O)[C@@H](NC(=O)[C@H](Cc1ccccc1)NC(=O)[C@@H](NC(=O)CNC(=O)[C@H](CCC(=O)O)NC(=O)[C@@H](C)NC(=O)[C@@H](N)Cc1ccc(O)cc1)[C@@H](C)O)[C@@H](C)CC)C(=O)N[C@@H](C)C(=O)N[C@@H](CCSC)C(=O)O [D-Ala^2-GIP1-14]
[1]; [6]
  half life after incubation with DP IV: stable

## YGEGTF-NH2 [Gly^2-GIP1-6a]
[1]; [6]
  half life after incubation with DP IV: Not detectable^b

## YVEGTF-NH2 [Val^2-GIP1-6a]
[1]; [6]
  half life after incubation with DP IV: Not detectable

B1: GIP(1-14)(Ahx)2(19-30)NH2 (peptide, UniProt P09681 52-65, looked up)
peptide: YAEGTFISDYSIAM[Ahx][Ahx]QQDFVNWLLAQK-NH2
modifications: N-terminus assumed
SMILES: CC[C@H](C)[C@H](NC(=O)[C@H](CO)NC(=O)[C@H](Cc1ccc(O)cc1)NC(=O)[C@H](CC(=O)O)NC(=O)[C@H](CO)NC(=O)[C@@H](NC(=O)[C@H](Cc1ccccc1)NC(=O)[C@@H](NC(=O)CNC(=O)[C@H](CCC(=O)O)NC(=O)[C@H](C)NC(=O)[C@@H](N)Cc1ccc(O)cc1)[C@@H](C)O)[C@@H](C)CC)C(=O)N[C@@H](C)C(=O)N[C@@H](CCSC)C(=O)NCCCCCC(=O)NCCCCCC(=O)N[C@@H](CCC(N)=O)C(=O)N[C@@H](CCC(N)=O)C(=O)N[C@@H](CC(=O)O)C(=O)N[C@@H](Cc1ccccc1)C(=O)N[C@H](C(=O)N[C@@H](CC(N)=O)C(=O)N[C@@H](Cc1c[nH]c2ccccc12)C(=O)N[C@@H](CC(C)C)C(=O)N[C@@H](CC(C)C)C(=O)N[C@@H](C)C(=O)N[C@@H](CCC(N)=O)C(=O)N[C@@H](CCCCN)C(N)=O)C(C)C
notes: range 52-65
[3]
  Max. cAMP (Fold Basal): 95.9 fold basal
  cAMP Production EC50: 2.51 µM
[4]
  IC50: 2.77 µM
[5]
  % Displacement at 20 µM: 85.8%

B2: GIP(1-14)(Ahx)3(19-30)NH2 (peptide, UniProt P09681 52-65, looked up)
peptide: YAEGTFISDYSIAM[Ahx][Ahx][Ahx]QQDFVNWLLAQK-NH2
modifications: N-terminus assumed
SMILES: CC[C@H](C)[C@H](NC(=O)[C@H](CO)NC(=O)[C@H](Cc1ccc(O)cc1)NC(=O)[C@H](CC(=O)O)NC(=O)[C@H](CO)NC(=O)[C@@H](NC(=O)[C@H](Cc1ccccc1)NC(=O)[C@@H](NC(=O)CNC(=O)[C@H](CCC(=O)O)NC(=O)[C@H](C)NC(=O)[C@@H](N)Cc1ccc(O)cc1)[C@@H](C)O)[C@@H](C)CC)C(=O)N[C@@H](C)C(=O)N[C@@H](CCSC)C(=O)NCCCCCC(=O)NCCCCCC(=O)NCCCCCC(=O)N[C@@H](CCC(N)=O)C(=O)N[C@@H](CCC(N)=O)C(=O)N[C@@H](CC(=O)O)C(=O)N[C@@H](Cc1ccccc1)C(=O)N[C@H](C(=O)N[C@@H](CC(N)=O)C(=O)N[C@@H](Cc1c[nH]c2ccccc12)C(=O)N[C@@H](CC(C)C)C(=O)N[C@@H](CC(C)C)C(=O)N[C@@H](C)C(=O)N[C@@H](CCC(N)=O)C(=O)N[C@@H](CCCCN)C(N)=O)C(C)C
notes: range 52-65; also called GlP(1-14)(Ahx)3(19-30)NH2
[3]
  Max. cAMP (Fold Basal): 49.5 fold basal
  cAMP Production EC50: ~20 µM
[4]
  IC50: 3.21 µM
[5]
  % Displacement at 20 µM: 82.7%

B3: GIP(1-14)(Ahx)1(19-30)NH2 (peptide, UniProt P09681 52-65, looked up)
peptide: YAEGTFISDYSIAM[Ahx]QQDFVNWLLAQK-NH2
modifications: N-terminus assumed
SMILES: CC[C@H](C)[C@H](NC(=O)[C@H](CO)NC(=O)[C@H](Cc1ccc(O)cc1)NC(=O)[C@H](CC(=O)O)NC(=O)[C@H](CO)NC(=O)[C@@H](NC(=O)[C@H](Cc1ccccc1)NC(=O)[C@@H](NC(=O)CNC(=O)[C@H](CCC(=O)O)NC(=O)[C@H](C)NC(=O)[C@@H](N)Cc1ccc(O)cc1)[C@@H](C)O)[C@@H](C)CC)C(=O)N[C@@H](C)C(=O)N[C@@H](CCSC)C(=O)NCCCCCC(=O)N[C@@H](CCC(N)=O)C(=O)N[C@@H](CCC(N)=O)C(=O)N[C@@H](CC(=O)O)C(=O)N[C@@H](Cc1ccccc1)C(=O)N[C@H](C(=O)N[C@@H](CC(N)=O)C(=O)N[C@@H](Cc1c[nH]c2ccccc12)C(=O)N[C@@H](CC(C)C)C(=O)N[C@@H](CC(C)C)C(=O)N[C@@H](C)C(=O)N[C@@H](CCC(N)=O)C(=O)N[C@@H](CCCCN)C(N)=O)C(C)C
notes: range 52-65
[3]
  Max. cAMP (Fold Basal): 102 fold basal
  cAMP Production EC50: 1.41 µM
[4]
  IC50: 2.71 µM
[5]
  % Displacement at 20 µM: 86.1%
